Experimental data: patent US20070286858A1

Target: murine RAGE-Fc (mouse) (UniProt Q62151)
Assay: method not given

murine RAGE-Fc (mouse), sequence (Q62151 other isoform, or with tags, fused parts or gaps, form in doubt): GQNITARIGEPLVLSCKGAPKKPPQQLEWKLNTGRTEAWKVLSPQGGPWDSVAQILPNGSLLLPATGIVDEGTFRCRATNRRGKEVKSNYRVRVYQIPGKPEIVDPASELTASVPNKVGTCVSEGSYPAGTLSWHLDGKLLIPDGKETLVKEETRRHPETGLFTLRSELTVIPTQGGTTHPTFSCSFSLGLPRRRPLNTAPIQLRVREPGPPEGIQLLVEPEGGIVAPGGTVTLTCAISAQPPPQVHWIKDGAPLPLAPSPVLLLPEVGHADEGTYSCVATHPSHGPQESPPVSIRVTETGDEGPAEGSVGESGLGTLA

B1: XT-M4 (antibody, rat IgG2b, V domains shown)
VH: EVQLVESGGGLVQPGRSLKLSCVVSGFTFNNYWMTWIRQTPGKGLEWVASINNSGDNTYYPDSVKDRFTISRDNAKSTLYLQMNSLRSEDTATYYCTRGGDITTGFDYWGQGVMVTVSS
VL: DIQMTQSPSSMSVSLGDTITITCRASQDVGIYVNWFQQKPGKSPRRMIYRATNLADGVPSRFSGSRSGSIYSLTISSLESEDVADYHCLEFDEHPLTFGSGTKVEIK
  Kd: 0.3 nM
